According to the supplement of paper PMC7877785:
± gives the uncertainty stated by the source.

Experiment: self-splicing fitness, log relative to wild type (ln ratio); higher = more splicing; Tetrahymena group I intron in knt gene, E. coli kanamycin selection, DiMSum; sequences stand for … in CUCUCU…GGAGGGAAAAGUUAUCAGGCAUGCACCUGGUAGCUAGUCUUUAAACCAAUAGAUUGCAUCGGUUUAAAAGGCAAGACCGUCAAAUUGCGGGAAAGGGGUCAACAGCCGUUCAGUACCAAGUCUCAGGGGAAACUUUGAGAUGGCCUUGCAAAGGGUAUGGUAAUAAGCUGACGGACAUGGUCCUAACCACGCAGCCAAGUCCUAAGUCAACAGAUCUUCUGUUGAUAUGGAUGCAGUUCACAGACUAAAUGUCGGUCGGGGAAGAUGUAUUCUUCUCAUAAGAUAUAGUCGGACCUCUCCUUAAUGGGAGCUAGCGGAUGAAGUGAUGCAACACUGGAGCCGCUGGGAACUAAUUUGUAUGCGAAAGUAUAUUGAUUAGUUUUGGAGUACUCGUGGUCG
Procedure, shortened: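 Colonies from six replicate transformations of E. coli BL21(DE3) were pooled and amplicon-sequenced on an Illumina HiSeq 2500. The library placed an intron with all eight P1ex-region nucleotides randomised inside the knt kanamycin-resistance gene on pET-22b(+), and cells grew overnight at 37°C or 30°C on LB agar with or without 25 μg/mL kanamycin (plus 100 μg/mL carbenicillin, 50 μM IPTG, 0.2% rhamnose). Fitness is the DiMSum error-weighted combination of wild-type-normalised replicate fold changes, kanamycin versus none.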

| Sequence | self-splicing fitness (ln) (30 °C) | self-splicing fitness (ln) (37 °C) |
| --- | --- | --- |
| UACGAGCAAUAUUACGUCUA | -0.512 ± 0.1 | -0.152 ± 0.11 |
| UACGAGCAAUAUUACGUUAU | -3.45 ± 0.12 | -2.24 ± 0.099 |
| UACGAGCAAUAUUACGUUCA | -1.3 ± 0.11 | -0.719 ± 0.13 |
| UACUAGCAAUAUUACGAAAU | – | -3.34 ± 0.4 |
| UACUAGCAAUAUUACGAACC | – | -2.16 ± 0.22 |
| UACUAGCAAUAUUACGAACG | -0.328 ± 0.15 | -0.12 ± 0.18 |
| UACUAGCAAUAUUACGAACU | -1.14 ± 0.21 | -1.51 ± 0.25 |
| UACUAGCAAUAUUACGAGAA | -1.6 ± 0.33 | -0.769 ± 0.22 |
| UACUAGCAAUAUUACGAGAU | -2.46 ± 0.23 | -1.54 ± 0.28 |
| UACUAGCAAUAUUACGAGUA | -2.36 ± 0.18 | -1.77 ± 0.19 |
| UACUAGCAAUAUUACGAUCC | -3.14 ± 0.36 | -2.84 ± 0.38 |
| UACUAGCAAUAUUACGAUUG | -1.88 ± 0.16 | -0.352 ± 0.21 |
| UACUAGCAAUAUUACGCGGC | -4.73 ± 0.46 | -2.95 ± 0.4 |
| UACUAGCAAUAUUACGGAUU | -2.82 ± 0.12 | -1.56 ± 0.13 |
| UACUAGCAAUAUUACGGGGC | -3.02 ± 0.3 | -2.5 ± 0.44 |
| UACUAGCAAUAUUACGGGGG | -2.19 ± 0.12 | -1.31 ± 0.14 |
| UACUAGCAAUAUUACGUCUG | -0.817 ± 0.07 | -0.845 ± 0.086 |
| UACUAGCAAUAUUACGUGGC | -2.44 ± 0.18 | -2.91 ± 0.28 |
| UACUAGCAAUAUUACGUGUC | -3.38 ± 0.17 | -2.79 ± 0.15 |
| UACUAGCAAUAUUACGUUAC | -3.86 ± 0.27 | -2.44 ± 0.3 |
| UACUAGCAAUAUUACGUUCC | -2.22 ± 0.32 | -2.33 ± 0.35 |
| UACUAGCAAUAUUACGUUGG | -2.61 ± 0.14 | -0.807 ± 0.15 |
| UAGAAGCAAUAUUACGAAAU | -3.48 ± 0.24 | -1.95 ± 0.21 |
| UAGAAGCAAUAUUACGACAG | -0.764 ± 0.12 | -0.152 ± 0.14 |

| Sequence | self-splicing fitness (ln) (30 °C) | self-splicing fitness (ln) (37 °C) |
| --- | --- | --- |
| UAGAAGCAAUAUUACGACGC | -1.84 ± 0.33 | -1.21 ± 0.24 |
| UAGAAGCAAUAUUACGAGCA | -1.27 ± 0.096 | 0.167 ± 0.1 |
| UAGAAGCAAUAUUACGAGCC | – | -2.23 ± 0.26 |
| UAGAAGCAAUAUUACGAGGG | -3.17 ± 0.18 | -2.62 ± 0.21 |
| UAGAAGCAAUAUUACGAUAG | -1.57 ± 0.15 | -0.522 ± 0.15 |
| UAGAAGCAAUAUUACGAUCU | -1.11 ± 0.12 | -0.261 ± 0.16 |
| UAGAAGCAAUAUUACGAUGC | -1.9 ± 0.24 | -0.852 ± 0.2 |
| UAGAAGCAAUAUUACGCAAU | -2.51 ± 0.16 | -1.04 ± 0.24 |
| UAGAAGCAAUAUUACGCACA | -0.416 ± 0.098 | -0.144 ± 0.16 |
| UAGAAGCAAUAUUACGCACG | -0.11 ± 0.23 | -0.0394 ± 0.23 |
| UAGAAGCAAUAUUACGCAGU | -4.08 ± 0.29 | -2.07 ± 0.25 |
| UAGAAGCAAUAUUACGCGUG | -1.17 ± 0.13 | -0.211 ± 0.13 |
| UAGAAGCAAUAUUACGCUAA | -1.42 ± 0.12 | -0.983 ± 0.1 |
| UAGAAGCAAUAUUACGCUUC | -2.27 ± 0.18 | -2.81 ± 0.22 |
| UAGAAGCAAUAUUACGGAUU | -1.57 ± 0.11 | -1.37 ± 0.15 |
| UAGAAGCAAUAUUACGGCAC | -2.42 ± 0.09 | -1.89 ± 0.095 |
| UAGAAGCAAUAUUACGGCGA | 0.119 ± 0.22 | -0.385 ± 0.24 |
| UAGAAGCAAUAUUACGGGGC | -3.58 ± 0.39 | -1.6 ± 0.21 |
| UAGAAGCAAUAUUACGGUAU | -3.08 ± 0.2 | -2.55 ± 0.17 |
| UAGAAGCAAUAUUACGGUUC | -3.98 ± 0.25 | -2.31 ± 0.19 |
| UAGAAGCAAUAUUACGUACA | -0.549 ± 0.14 | 0.208 ± 0.16 |
| UAGAAGCAAUAUUACGUCAA | -2.08 ± 0.16 | -0.86 ± 0.12 |
| UAGAAGCAAUAUUACGUCGC | -3.7 ± 0.38 | -2.21 ± 0.32 |
| UAGAAGCAAUAUUACGUCGU | -1.75 ± 0.097 | -0.904 ± 0.1 |
